Experimental data taken from US20210070876A1 (LES LABORATOIRES SERVIER, published 2021).
Blank lines part the entries; values can stand above or below the binder they belong to.

Experiments:
[1] = target: T1, human CD73 ECD fused C-terminally to human IgG1 Fc (human, UniProt P21589 27-549, limits assumed); experiment: SPR, Fc-tagged CD73 ECD captured, Fab injected
T1 construct: Expressed in ExpiCHO; also called Hs CD73 ECD; Fc-tagged antigen
T1 sequence: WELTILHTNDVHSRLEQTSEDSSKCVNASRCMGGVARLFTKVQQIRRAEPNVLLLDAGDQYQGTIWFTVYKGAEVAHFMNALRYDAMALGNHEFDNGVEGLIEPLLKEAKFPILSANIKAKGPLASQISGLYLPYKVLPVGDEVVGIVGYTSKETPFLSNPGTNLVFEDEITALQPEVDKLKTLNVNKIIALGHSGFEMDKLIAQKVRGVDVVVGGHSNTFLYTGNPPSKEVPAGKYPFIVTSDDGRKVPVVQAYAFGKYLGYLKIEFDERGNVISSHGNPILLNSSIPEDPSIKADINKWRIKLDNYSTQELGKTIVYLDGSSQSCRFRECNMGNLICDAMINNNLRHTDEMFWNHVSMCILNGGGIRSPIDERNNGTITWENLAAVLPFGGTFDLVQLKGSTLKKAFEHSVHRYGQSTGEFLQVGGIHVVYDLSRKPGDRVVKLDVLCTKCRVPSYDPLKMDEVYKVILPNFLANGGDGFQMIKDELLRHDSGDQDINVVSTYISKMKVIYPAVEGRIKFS
Method: (§1) Kinetic binding analysis of anti-CD73 mAbs and Fab fragments was performed by Surface Plasmon Resonance (SPR), using a Continuous Flow Microspotter (CFM, Wasatch Microfluidics, Salt Lake City, US) combined with an IBIS MX96 SPR instrument (IBIS Technologies, The Netherlands). CD73 cDNAs coding for the extracellular domains of human and cynomolgus CD73 were synthesized and each cloned into a vector containing a CMV promoter and either a C-terminal 6× histidine sequence (SEQ ID NO: 45) for His-tagged CD73 ECD, or a human IgG1 Fc sequence (AA P101-K330), resulting in fusion of IgG1 Fc C-terminally to the cloned CD73 ECD. The His-tagged and Fc-fusion constructs were transiently expressed using an ExpiCHO™ expression system and purified either by standard Ni-NTA chromatography or standard MabSelect™ SuRe™ procedures, respectively. Anti-CD73 Fab fragments were generated by digesting full-length IgG1 antibodies with GingisKHAN enzyme, using a kit provided by Genovis (Sweden). Affinities of Fab fragments were measured by capturing Fc-tagged antigens on a G-a-hu-IgG Fc SensEye® for 15 minutes using the CFM. After spotting, the SensEye® was positioned in the IBIS MX96 biosensor and immobilized antigens were fixed by SensEye FixIt kit. Kinetic analysis was performed by injecting monomeric Fab fragments at increasing concentrations from 0.8 nM to 300 nM. After each cycle of Fab fragment injection, the surface was regenerated by 10 mM glycine pH 3, 10% glycerol. Fab association was performed for 15 minutes and antigen dissociation was performed for 15 minutes. Affinities of full-length monoclonal antibodies (mAbs) were measured by capturing mAbs on a G-a-hu-IgG Fc SensEye® (Ssens BV, The Netherlands) for 15 minutes using a Continuous Flow Microspotter (CFM, Wasatch Microfluidics, Salt Lake City, US). After spotting, the SensEye was docked in the IBIS MX96 and spotted mAbs were fixed by SensEye FixIt kit (Ssens BV, The Netherlands). Kinetic analysis was performed by applying a kinetic titration series injecting increasing concentrations of His-tagged antigens from 0.16 nM to 10 nM as 2-fold dilutions. The surface was regenerated before the next cycle of cynomolgus antigen injections by 100 mM H₃PO₄, pH 3. MAb association was performed for 15 minutes and antigen dissociation was performed for 45 minutes.

[2] = target: T2, cynomolgus CD73 ECD fused C-terminally to human IgG1 Fc (cynomolgus monkey (Macaca …, UniProt A0A2K5V5U7 27-549)); experiment: SPR, Fc-tagged CD73 ECD captured, Fab injected
T2 construct: also called Cy CD73 ECD; Fc-tagged antigen; not shown: Human IgG1 Fc (printed as AA P101-K330) fused to the C-terminus of the ECD, and any linker
T2 sequence: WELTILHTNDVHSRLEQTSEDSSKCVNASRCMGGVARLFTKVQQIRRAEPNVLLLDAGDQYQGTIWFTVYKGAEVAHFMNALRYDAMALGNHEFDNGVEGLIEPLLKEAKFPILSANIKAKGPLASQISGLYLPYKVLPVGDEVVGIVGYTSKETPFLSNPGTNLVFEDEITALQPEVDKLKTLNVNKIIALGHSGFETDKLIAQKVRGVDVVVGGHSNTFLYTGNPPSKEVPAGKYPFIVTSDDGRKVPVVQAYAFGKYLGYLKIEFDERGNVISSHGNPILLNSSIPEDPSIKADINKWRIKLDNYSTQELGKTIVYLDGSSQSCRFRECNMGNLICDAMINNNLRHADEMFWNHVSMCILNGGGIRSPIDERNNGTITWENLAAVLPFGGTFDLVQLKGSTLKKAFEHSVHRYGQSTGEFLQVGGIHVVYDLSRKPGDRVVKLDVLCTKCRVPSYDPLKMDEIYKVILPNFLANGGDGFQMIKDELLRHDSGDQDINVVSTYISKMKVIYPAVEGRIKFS
Method: as §1

[3] = target: T3, His-tagged human CD73 ECD (human, UniProt P21589 27-549); experiment: SEC-MALS, mAb:CD73 1:1
T3 construct: runs as a homodimer of about 124-125 kDa in SEC-MALS; also called CD73-His; CD73-His ECD antigen
T3 sequence: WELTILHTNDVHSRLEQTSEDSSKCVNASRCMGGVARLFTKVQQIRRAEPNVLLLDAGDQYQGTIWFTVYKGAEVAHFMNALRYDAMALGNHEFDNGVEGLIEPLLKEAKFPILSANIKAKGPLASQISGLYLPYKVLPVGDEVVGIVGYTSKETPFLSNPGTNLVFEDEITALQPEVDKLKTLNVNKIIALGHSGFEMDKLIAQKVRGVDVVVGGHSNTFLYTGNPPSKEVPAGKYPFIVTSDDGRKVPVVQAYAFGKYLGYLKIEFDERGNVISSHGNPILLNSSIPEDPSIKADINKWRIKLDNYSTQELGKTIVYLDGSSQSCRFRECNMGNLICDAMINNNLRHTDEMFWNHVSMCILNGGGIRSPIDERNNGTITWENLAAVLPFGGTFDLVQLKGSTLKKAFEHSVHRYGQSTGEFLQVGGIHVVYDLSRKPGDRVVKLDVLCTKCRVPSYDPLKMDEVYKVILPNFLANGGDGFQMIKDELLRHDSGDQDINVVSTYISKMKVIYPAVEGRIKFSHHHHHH
Method: (§2) Anti-CD73 antibodies and His-tagged CD73 were analyzed in different ratios as well as individually to analyze the size of complexes formed between CD73 homodimer and anti-CD73 antibodies. Samples were prepared by mixing […] of CD73-His with 900, 450, 90 or 0 μmol of antibody diluted into PBS, pH 7.4. Samples were incubated for 30 min at room temperature followed by separation using a UHPLC UltiMate 3000 (Thermo Scientific) and SEC X-Bridge column (Waters) at a flow rate of 1.2 mL/min. Sample running buffer was 0.01 M Citrate, 250 mM L-Arginine.HCl, pH 6.0. Following HPLC separation, all samples were analyzed using a MiniDAWN TREOS MALS detector (Wyatt) and Optilab T-rEX refractive index detector (Wyatt). Data plots were generated using Graph Pad Prism.

[4] = target: T3, His-tagged human CD73 ECD; experiment: SEC-MALS, mAb:CD73 0.1:1
Method: as §2

[5] = target: T3, His-tagged human CD73 ECD; experiment: SEC-MALS, mAb:CD73 0.5:1
Method: as §2

[6] = target: T4, His-tagged cynomolgus CD73 ECD (cynomolgus monkey (Macaca fascicularis)); experiment: SPR, mAb captured, His-tagged CD73 ECD injected
T4 chain: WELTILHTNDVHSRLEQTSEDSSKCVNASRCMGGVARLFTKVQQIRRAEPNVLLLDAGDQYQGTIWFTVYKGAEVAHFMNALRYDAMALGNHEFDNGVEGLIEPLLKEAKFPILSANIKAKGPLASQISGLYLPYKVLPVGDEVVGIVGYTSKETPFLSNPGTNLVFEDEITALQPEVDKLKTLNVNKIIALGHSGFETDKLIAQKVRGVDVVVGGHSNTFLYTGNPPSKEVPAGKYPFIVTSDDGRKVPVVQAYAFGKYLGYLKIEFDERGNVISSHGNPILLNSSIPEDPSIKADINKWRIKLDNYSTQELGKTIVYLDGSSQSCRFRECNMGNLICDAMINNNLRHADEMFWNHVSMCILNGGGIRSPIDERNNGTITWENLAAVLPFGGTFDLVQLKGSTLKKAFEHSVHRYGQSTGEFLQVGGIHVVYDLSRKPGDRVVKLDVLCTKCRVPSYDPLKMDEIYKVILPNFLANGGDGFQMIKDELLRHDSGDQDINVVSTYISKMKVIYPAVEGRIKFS
Method: as §1

[7] = target: T3, His-tagged human CD73 ECD; experiment: SPR, mAb captured, His-tagged CD73 ECD injected
Method: as §1

[8] = target: T5, human CD73 expressed on cells (human, UniProt P21589 27-549); experiment: flow cytometry on CHO-S cells transiently expressing human CD73, AF647 anti-human IgG (H+L) secondary, GeoMean
T5 construct: also called 5'-NT; human CD73 on CHO-S cells
T5 sequence: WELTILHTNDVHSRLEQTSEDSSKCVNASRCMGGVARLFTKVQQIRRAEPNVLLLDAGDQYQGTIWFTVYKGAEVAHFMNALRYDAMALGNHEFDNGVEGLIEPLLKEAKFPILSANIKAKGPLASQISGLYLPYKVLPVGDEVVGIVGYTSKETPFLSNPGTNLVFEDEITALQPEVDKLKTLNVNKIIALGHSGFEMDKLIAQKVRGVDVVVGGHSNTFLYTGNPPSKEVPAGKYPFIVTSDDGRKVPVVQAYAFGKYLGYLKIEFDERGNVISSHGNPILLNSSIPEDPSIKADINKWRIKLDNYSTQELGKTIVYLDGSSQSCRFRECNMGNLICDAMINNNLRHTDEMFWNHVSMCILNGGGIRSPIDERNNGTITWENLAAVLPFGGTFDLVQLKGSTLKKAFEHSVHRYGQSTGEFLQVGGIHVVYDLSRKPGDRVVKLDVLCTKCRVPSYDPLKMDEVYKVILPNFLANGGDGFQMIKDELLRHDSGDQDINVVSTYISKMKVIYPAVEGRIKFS
Method: The anti-CD73 antibodies were incubated with the hamster CHO-S cell line transiently expressing human or cynomolgus CD73 for 30 minutes at 4° C. The cells were washed twice and subsequently incubated for an additional 20 minutes with AF647-conjugated secondary anti-human IgG (H+L) antibody. After the washing step, antibody binding was detected using the high-throughput flow cytometer iQue Screener PLUS (Sartorius) measuring the GeoMean of AF647 signal in each well. Every concentration was assayed in triplicate and a 12-point titration curve was generated for each antibody.

Kd [1]: 78.3 nM
koff [1]: 0.015 s⁻¹
kon [1]: 200000 M⁻¹ s⁻¹
Kd [2]: 77.6 nM
koff [2]: 0.016 s⁻¹
kon [2]: 200000 M⁻¹ s⁻¹
B1: 21163 Fab fragment (Fab, V domains shown, not shown: small tags and cut ends)
VH: EVQLVESGGGLVQPGGSLRLSCAASGFSFSTYWMNWVRQAPGKGLEWVANIKQDGSEKYYVDSVKGRFTISRDNAKNSLYLQMNSLRAEDTAVYYCARDISSSWFYYYGMDVWGQGTTVTVSS
VL: DIQLTQSPSFLSASVGDRVTITCRASQGISSYLAWYQQKPGKAPKLLIYAASTLQSGVPSRFSGSGSGTEFTLTISSLQPEDFATYYCQQLNSYPPTFGGGTKVEIKR
notes: Made by digesting the full-length IgG1 with GingisKHAN enzyme (Genovis)

molecular mass of complex, Peak 2 (MW, kDa) [3]: 382 kDa
molecular mass of complex, Peak 2 (MW, kDa) [4]: 969 kDa
molecular mass of complex, Peak 2 (MW, kDa) [5]: 199 kDa
Kd [6]: 0.05 nM
koff [6]: 1.1e-05 s⁻¹
kon [6]: 210000 M⁻¹ s⁻¹
Kd [7]: 0.04 nM
koff [7]: 8.3e-06 s⁻¹
kon [7]: 190000 M⁻¹ s⁻¹
B2: antibody 21046 (antibody, human IgG1, kappa, L234A L235A, V domains shown)
VH: EVQLVESGGGLVQPGRSLRLSCVASGFTFDDYAMHWVRQAPGKGLEWVSGISWNSGSIGYADSVKGRFTISRDNAKNSLYLQMNSLRAEDTAFYYCAQGGYAILTALEYWGQGTLVTVSS
VL: DIQMTQSPSSLSASVGDRVTITCRASQGISNYLAWFQQKPGKAPKSLIYAASSLQSGVPSKFSGSGSGTDFTLTISSLQPEDFATYYCQQYNSYPLTFGGGTKVEIKR
notes: Fully human IgG1-LALA (L234A/L235A), kappa

binding result [8]: binds
B3: antibody 21028 (antibody, human IgG1, kappa, L234A L235A, V domains shown)
VH: EVQLVESGGGLVQPGRSLRLSCAASGFSFDDYAMHWVRQAPGKGLEWVSGISWHSDNIGYADSVKGRFTISRDNAKNSLYLQMNSLRAEDTAFYYCAKDGPRYRGSYYYFDYWGQGTLVTVSS
VL: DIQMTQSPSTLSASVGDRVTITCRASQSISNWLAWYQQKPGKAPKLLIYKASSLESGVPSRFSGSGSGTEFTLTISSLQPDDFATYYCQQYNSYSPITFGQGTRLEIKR
notes: Fully human IgG1-LALA (L234A/L235A), kappa; germline-corrected (Symplex-corrected) variable domains
